This passage reports Kd, fold increase of the emission peak intensity and fold increase of the excitation peak intensity results from publication doi:10.1101/2023.11.06.565731.

For experiment [1], the target named is mouse α-synuclein pre-formed fibrils (mouse) (UniProt O55042). The experiment can be described thus: other fluorescence titration.
Experiment [2] has as its target mouse α-synuclein type B* oligomers (mouse) (UniProt O55042). The experiment can be described thus: other fluorescence titration.

In experiment [1], “BODIPY630/650-labelled PSMα3 peptide probe P1” returned a Kd of 1400 nM, a fold increase of the emission peak intensity of 16 fold and a fold increase of the excitation peak intensity of 7.6 fold. In experiment [2], this substance displayed a fold increase of the emission peak intensity of 3 fold and a fold increase of the excitation peak intensity of 1.8 fold.
